Reference: paper PMC12022309, “A facultative plasminogen-independent thrombolytic enzyme from Sipunculus nudus” (Nature Communications, 2025)
pKd: −log10 of the molar value.

Tests used:
[1] = target: fibrinogen, biotin-labeled (UniProt P02671); assay: BLI; GatorPrime (GatorPivot in the results), streptavidin (SA-XT) biosensors; biotin-labeled plasminogen or fibrinogen immobilised, snFPITE in solution; 30 °C, 1000 rpm; association 2–3 min, dissociation 2–5 min
[2] = target: plasminogen, biotin-labeled (human); assay: as above
snFPITE-n1 (snFPITE) = target: T1, snFPITE-n1 (snFPITE) (Phascolopsis gouldii, UniProt Z9UHO8WHJ2); assay: inhibition of fibrin lysis or plasminogen activation, SDS-PAGE; format: biochemical; settings: 2.5 mM, 30 min pre-incubation; purified native snFPITE (called snFPITE-n1); enzyme also purified on Arg-Sepharose 4B
T1 construct: native, purified from S. nudus intestine / intestinal fluid by chromatography
T1 sequence (Z9UHO8WHJ2 1-239): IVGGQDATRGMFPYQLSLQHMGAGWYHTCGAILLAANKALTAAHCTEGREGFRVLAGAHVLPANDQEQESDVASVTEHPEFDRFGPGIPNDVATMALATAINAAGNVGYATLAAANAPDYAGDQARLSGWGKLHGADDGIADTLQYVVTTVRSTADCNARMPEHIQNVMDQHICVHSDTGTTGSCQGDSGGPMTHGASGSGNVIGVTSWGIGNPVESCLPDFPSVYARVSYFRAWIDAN

Chain of fibrinogen, biotin-labeled (P02671 36-866, chain 1 of 3): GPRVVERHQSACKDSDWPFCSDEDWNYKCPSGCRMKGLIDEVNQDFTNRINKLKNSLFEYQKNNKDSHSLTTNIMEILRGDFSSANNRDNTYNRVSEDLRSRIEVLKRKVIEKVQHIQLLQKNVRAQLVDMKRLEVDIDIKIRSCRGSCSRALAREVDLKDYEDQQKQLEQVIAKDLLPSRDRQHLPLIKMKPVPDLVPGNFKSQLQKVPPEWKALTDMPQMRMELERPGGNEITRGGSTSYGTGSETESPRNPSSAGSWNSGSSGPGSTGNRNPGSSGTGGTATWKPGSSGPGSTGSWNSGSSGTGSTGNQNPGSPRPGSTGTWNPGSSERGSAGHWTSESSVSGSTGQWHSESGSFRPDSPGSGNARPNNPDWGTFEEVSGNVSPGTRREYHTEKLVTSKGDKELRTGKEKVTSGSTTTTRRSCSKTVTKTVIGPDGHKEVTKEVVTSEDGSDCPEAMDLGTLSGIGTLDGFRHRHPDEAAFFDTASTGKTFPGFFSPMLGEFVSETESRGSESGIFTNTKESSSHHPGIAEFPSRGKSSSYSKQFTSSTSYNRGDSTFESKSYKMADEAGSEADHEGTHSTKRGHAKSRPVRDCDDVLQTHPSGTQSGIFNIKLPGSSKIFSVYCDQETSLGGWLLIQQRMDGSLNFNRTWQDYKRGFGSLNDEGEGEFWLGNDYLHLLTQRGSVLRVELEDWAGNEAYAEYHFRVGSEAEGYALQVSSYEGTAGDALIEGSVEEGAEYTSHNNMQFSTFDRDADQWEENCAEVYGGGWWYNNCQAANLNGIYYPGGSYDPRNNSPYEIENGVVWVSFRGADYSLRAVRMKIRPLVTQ
Chain of fibrinogen, biotin-labeled (P02675 45-491, chain 2 of 3, further chain): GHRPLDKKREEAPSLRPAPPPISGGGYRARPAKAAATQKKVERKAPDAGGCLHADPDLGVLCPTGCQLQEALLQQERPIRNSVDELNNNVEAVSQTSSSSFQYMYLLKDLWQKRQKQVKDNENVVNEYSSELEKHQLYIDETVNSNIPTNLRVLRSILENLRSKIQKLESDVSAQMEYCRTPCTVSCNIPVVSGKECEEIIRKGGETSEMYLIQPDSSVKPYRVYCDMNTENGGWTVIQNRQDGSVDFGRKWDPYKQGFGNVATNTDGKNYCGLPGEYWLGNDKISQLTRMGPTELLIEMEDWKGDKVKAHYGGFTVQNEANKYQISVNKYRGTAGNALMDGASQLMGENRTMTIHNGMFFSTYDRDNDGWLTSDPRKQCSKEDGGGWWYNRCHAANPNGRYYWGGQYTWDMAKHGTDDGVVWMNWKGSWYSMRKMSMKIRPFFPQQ
Chain of fibrinogen, biotin-labeled (P02679 27-453, chain 3 of 3, further chain): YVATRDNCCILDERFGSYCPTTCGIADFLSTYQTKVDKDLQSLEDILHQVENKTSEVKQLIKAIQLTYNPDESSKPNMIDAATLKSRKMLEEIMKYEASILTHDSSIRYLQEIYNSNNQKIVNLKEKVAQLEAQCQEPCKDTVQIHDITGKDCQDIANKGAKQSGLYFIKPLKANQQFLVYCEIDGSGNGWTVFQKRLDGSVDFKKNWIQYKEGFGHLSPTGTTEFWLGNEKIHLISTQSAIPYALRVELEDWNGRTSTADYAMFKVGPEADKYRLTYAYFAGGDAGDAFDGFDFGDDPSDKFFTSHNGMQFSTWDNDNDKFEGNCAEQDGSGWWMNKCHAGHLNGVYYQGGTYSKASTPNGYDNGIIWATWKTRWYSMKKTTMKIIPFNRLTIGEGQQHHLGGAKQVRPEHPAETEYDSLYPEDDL

| pKd [1] | pKd [2] | Compound | inhibition of fibrin lysis or plasminogen activation, SDS-PAGE (snFPITE-n1 (snFPITE)) |
| --- | --- | --- | --- |
| 9.88 | 7.26 | small facultative plasminogen-independent thrombolytic enzyme (snFPITE) from Sipunculus nudus |  |
|  |  | N=C(N)NCCC[C@H](N)C(=O)O [arginine] | Lys or Arg inhibited snFPITE-n1 |
